Measurements published in patent US20240262905A1.
Read-outs that look alike come from different tables or passages of the source.

How the values were obtained:
Insulin [1] = test: ELISA, plate coated with insulin 5 ug/mL, test article at 100 nM, anti-human Fc-HRP detection
Insulin [2] = test: as above; remark: listed apart in the source

| Substance | Insulin polyreactivity score (Insulin [1]) | Insulin polyreactivity score (Insulin [2]) |
| --- | --- | --- |
| Elotuzumab (antibody) | 1.4 | 2.2 |
| Lenzilumab (antibody) | 40 | 18 |
